T1: Human CD3 epsilon-delta (human)
T1 construct: Single-chain epsilon-linker-delta with His6; also called huCD3
T1 chain: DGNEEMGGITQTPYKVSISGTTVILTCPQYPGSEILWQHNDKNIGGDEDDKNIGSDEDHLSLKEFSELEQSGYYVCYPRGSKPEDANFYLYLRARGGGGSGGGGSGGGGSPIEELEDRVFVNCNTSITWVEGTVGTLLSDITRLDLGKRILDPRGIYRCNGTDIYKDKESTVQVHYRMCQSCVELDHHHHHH


What was measured:
[1] = molecular target: T2, Human GUCY2C ECD Cleaved (human, UniProt P25092 24-430); assay: SPR, human IgG1 against human GUCY2c ECD
T2 construct: also called human GUCY2c extracellular domain protein (ECD)

[2] = molecular target: T3, Human GUCY2C ECD-muIgG2a (human); assay: sandwich ELISA: CD3 epsilon-delta coated, GUCY2c ECD-mIgG2a Fc in solution
T3 construct: also called human GUCY2c ECD-mouse IgG2a Fc fusion protein; huGUCY2c-mIgG2a

[3] = molecular target: T1, Human CD3 epsilon-delta; assay: direct ELISA, coated CD3 epsilon-delta
Description: Proteins were screened for binding to recombinant human, cyno and mouse proteins by ELISA. Purified human, cynomolgus, murine GUCY2c ECD or human CD3 epsilon-delta proteins were coated on Nunc-Maxisorb 384-well ELISA plates at 1 μg/ml in 20 μl in PBS-CMF (calcium and magnesium free) at 4 C. Plates were washed 3x with PBS+0.05% TWEEN20 and blocked with PBS+3% milk for 1 hr, shaking at RT. Blocking solution was removed and samples serially diluted in block were added and incubated for 1 hr shaking at RT. Plates were washed 3x as before and a secondary antibody was added (goat anti-hu IgG Fc-HRP—Southern Biotech L2047-05, 1:5000;
goat anti-mouse IgG Fc-HRP—Thermo Scientific, diluted 1:4,000; or mouse anti-penta-HIS-HRP, Qiagen, 1:1000), followed by shaking for 1 hr at RT. Plates were washed as before and signal was developed using TMB, the reaction stopped with H2SO4 and the absorbance read at 450 nm on an Envision plate reader (Perkin Elmer). An alternative detection method was also periodically employed in place of TMB/H2SO4. […] Time-resolved fluorescence was then measured at 320 and 615 nm using an EnVision® plate reader (EnVision® Multilabel Plate Reader, Perkin Elmer) following the manufacturer's methods.

[4] = molecular target: Human GUCY2c on tumor cells (T84, HT55) (human, UniProt P25092 24-1073); assay: cell-based or functional assay
[5] = molecular target: T4, Purified human GUCY2c ECD (recombinant, construct not stated) (human, UniProt P25092 24-430); assay: direct ELISA, coated GUCY2c ECD
T4 construct: also called recombinant human GUCY2c; recombinant GUCY2c protein
T4 sequence (P25092 24-430 limits assumed): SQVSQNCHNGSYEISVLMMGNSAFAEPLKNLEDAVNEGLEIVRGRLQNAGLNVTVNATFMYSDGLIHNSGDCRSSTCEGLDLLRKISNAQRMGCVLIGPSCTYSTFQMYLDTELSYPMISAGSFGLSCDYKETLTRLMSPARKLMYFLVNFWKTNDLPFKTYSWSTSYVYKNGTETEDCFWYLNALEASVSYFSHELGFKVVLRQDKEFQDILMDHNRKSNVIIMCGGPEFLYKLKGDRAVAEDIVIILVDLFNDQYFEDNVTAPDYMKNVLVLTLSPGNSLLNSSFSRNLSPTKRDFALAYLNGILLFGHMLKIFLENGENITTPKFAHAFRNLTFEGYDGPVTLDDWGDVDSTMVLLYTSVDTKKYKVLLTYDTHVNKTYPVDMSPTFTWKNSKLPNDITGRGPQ

T2 sequence (P25092 other isoform, or with tags, fused parts or gaps): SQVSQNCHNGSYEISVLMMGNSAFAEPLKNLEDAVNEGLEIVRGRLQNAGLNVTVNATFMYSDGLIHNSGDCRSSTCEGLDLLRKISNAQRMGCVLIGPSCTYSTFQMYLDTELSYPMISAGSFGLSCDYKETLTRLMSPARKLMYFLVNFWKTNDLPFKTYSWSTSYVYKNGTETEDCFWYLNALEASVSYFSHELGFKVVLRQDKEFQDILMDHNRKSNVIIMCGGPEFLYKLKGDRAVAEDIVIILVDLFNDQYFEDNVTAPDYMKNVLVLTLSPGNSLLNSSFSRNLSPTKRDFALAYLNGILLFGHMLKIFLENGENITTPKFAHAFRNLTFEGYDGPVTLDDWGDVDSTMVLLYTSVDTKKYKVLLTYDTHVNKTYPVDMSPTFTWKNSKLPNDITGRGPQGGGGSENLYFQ
T3 sequence (chain, as listed by the source limits assumed): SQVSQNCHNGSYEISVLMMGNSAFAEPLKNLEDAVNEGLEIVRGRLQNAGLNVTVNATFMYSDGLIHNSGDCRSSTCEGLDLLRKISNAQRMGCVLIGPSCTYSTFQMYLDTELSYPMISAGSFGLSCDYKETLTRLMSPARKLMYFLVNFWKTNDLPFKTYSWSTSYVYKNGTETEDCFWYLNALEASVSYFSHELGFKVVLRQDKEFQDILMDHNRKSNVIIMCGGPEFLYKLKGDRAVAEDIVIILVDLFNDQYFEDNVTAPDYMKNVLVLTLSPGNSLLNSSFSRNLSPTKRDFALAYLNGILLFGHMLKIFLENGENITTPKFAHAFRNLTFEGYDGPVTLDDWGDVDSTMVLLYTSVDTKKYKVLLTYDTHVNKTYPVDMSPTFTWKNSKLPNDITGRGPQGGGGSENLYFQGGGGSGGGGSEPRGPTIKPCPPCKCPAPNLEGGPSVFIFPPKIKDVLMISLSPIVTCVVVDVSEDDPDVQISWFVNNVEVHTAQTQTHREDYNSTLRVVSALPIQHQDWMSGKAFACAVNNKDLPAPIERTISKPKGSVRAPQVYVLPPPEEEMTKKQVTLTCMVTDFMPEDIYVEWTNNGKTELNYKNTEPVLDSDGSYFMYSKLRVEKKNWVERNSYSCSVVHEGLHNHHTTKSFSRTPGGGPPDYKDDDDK
Human GUCY2c on tumor cells (T84, HT55), sequence (P25092 24-1073 limits assumed): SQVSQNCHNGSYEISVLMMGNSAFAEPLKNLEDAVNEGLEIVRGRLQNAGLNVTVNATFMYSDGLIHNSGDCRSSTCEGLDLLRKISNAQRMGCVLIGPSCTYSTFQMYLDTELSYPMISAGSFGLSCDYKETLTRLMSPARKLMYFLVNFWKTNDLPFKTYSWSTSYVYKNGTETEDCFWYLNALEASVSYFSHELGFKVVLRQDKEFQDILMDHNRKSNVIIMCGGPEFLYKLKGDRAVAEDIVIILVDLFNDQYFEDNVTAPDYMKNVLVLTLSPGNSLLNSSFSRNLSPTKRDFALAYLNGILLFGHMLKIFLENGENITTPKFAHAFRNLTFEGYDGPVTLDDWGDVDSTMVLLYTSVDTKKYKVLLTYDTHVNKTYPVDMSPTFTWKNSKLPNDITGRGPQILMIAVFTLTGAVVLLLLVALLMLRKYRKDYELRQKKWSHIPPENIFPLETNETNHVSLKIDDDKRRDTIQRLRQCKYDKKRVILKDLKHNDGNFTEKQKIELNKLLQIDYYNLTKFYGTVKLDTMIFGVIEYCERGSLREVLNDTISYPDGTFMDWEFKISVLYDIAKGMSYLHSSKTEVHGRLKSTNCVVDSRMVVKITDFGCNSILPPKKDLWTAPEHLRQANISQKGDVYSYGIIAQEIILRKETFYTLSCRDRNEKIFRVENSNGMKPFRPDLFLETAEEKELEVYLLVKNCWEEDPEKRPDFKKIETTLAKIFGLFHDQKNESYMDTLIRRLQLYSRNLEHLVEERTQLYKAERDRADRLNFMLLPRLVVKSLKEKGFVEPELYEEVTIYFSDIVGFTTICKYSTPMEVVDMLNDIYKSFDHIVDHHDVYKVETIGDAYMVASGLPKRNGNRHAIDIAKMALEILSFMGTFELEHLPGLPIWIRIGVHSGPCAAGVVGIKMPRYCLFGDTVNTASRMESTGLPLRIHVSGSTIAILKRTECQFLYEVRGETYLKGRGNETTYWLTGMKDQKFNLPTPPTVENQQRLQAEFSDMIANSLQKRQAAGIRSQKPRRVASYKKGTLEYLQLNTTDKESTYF

| Kd [1] | koff [1] | kon [1] | EC50 [2] | EC50 [3] | EC50 [5] | Binder | T84 tumor cell EC50 (T cell cytotoxicity, E:T 10:1) [4] |
| --- | --- | --- | --- | --- | --- | --- | --- |
| 6.71 nM | 0.00108 s⁻¹ | 161000 M⁻¹ s⁻¹ |  |  |  | GUCY2C-1713 (antibody, human IgG1, V domains shown, full human IgG1/kappa) VH: EVQLVESGGGLVQPGGSLRLSCAASGFTFSHTWMHWVRQAPGKGLEWIGEIKPSRGFTNVHEKFKDRFTISVDKAKNSAYLQMNSLRAEDTAVYYCTRTITTTQGYWFFDVWGQGTLVTVSS VL: DIQLTQSPSSLSASVGDRVTITCRASESVNWYGSSLMQWYQQKPGKAPKLLIYAASKLASGVPSRFSGSGSGTDFTLTISSLQPEDFATYYCQQTRKAYTFGQGTKLEIK |  |
| 10.3 nM | 0.00124 s⁻¹ | 121000 M⁻¹ s⁻¹ |  |  |  | GUCY2C-1714 (antibody, human IgG1, V domains shown, full human IgG1/kappa) VH: EVQLVESGGGLVQPGGSLRLSCAASGFTFSHTWMHWVRQAPGKGLEWIGEIKPSTKYTNVHEKFKDRFTISVDKAKNSAYLQMNSLRAEDTAVYYCARTIFTREGYWFFDVWGQGTLVTVSS VL: DIQLTQSPSSLSASVGDRVTITCRASESVNWYGSSLMQWYQQKPGKAPKLLIYAASKLASGVPSRFSGSGSGTDFTLTISSLQPEDFATYYCQQTRKAYTFGQGTKLEIK |  |
| 5.94 nM | 0.00147 s⁻¹ | 248000 M⁻¹ s⁻¹ |  |  |  | GUCY2C-1710 (antibody, human IgG1, V domains shown, full human IgG1/kappa) VH: EVQLVESGGGLVQPGGSLRLSCAASGFTFSSYWMHWVRQAPGKGLEWIGEIKPSRGWTNVHEKFKDRFTISVDKAKNSAYLQMNSLRAEDTAVYYCARTITTTEGYWFFDVWGQGTLVTVSS VL: DIQLTQSPSSLSASVGDRVTITCRASESVDYYRHSLMQWYQQKPGKAPKLLIYAASKLASGVPSRFSGSGSGTDFTLTISSLQPEDFATYYCQQTRKAYTFGQGTKLEIK |  |
| 9.44 nM | 0.00132 s⁻¹ | 140000 M⁻¹ s⁻¹ |  |  |  | GUCY2C-1708 (antibody, human IgG1, V domains shown, full human IgG1/kappa) VH: EVQLVESGGGLVQPGGSLRLSCAASGFTFSRPWMHWVRQAPGKGLEWIGEIKPSTGWTNVHEKFKDRFTISVDKAKNSAYLQMNSLRAEDTAVYYCTRTITTTTGYWFFDVWGQGTLVTVSS VL: DIQLTQSPSSLSASVGDRVTITCRASESVDYYKHSLMQWYQQKPGKAPKLLIYAASKLASGVPSRFSGSGSGTDFTLTISSLQPEDFATYYCQQTRKAYTFGQGTKLEIK |  |

The remaining lines, values behind:

| Binder | Kd [1] | koff [1] | kon [1] | EC50 [2] | EC50 [3] | EC50 [5] | T84 tumor cell EC50 (T cell cytotoxicity, E:T 10:1) [4] |
| --- | --- | --- | --- | --- | --- | --- | --- |
| GUCY2C-1705 (antibody, human IgG1, V domains shown, full human IgG1/kappa) VH: EVQLVESGGGLVQPGGSLRLSCAASGFTFSSYWMHWVRQAPGKGLEWIGEIKPSRGFTNVHEKFKDRFTISVDKAKNSAYLQMNSLRAEDTAVYYCTRTITTTEGYWFFDVWGQGTLVTVSS VL: DIQLTQSPSSLSASVGDRVTITCRASESVDYYGSSLMQWYQQKPGKAPKLLIYAASKLASGVPSRFSGSGSGTDFTLTISSLQPEDFATYYCQQTRKAYTFGQGTKLEIK | 6.25 nM | 0.00149 s⁻¹ | 239000 M⁻¹ s⁻¹ |  |  |  |  |
| GUCY2C-1640 (antibody, human IgG1, kappa, V domains shown) VH: EVQLVESGGGLVQPGGSLRLSCAASGFTFSSYWMHWVRQAPGKGLEWIGEIKPSNELTNVHEKFKDRFTISVDKAKNSAYLQMNSLRAEDTAVYYCTRTITTTEGYWFFDVWGQGTLVTVSS VL: DIQLTQSPSSLSASVGDRVTITCRASESVDYYGSSLLQWYQQKPGKAPKLLIYAASKLASGVPSRFSGSGSGTDFTLTISSLQPEDFATYYCQQTRKAYTFGQGTKLEIKR | 13.9 nM | 0.00271 s⁻¹ | 195000 M⁻¹ s⁻¹ |  |  |  |  |
| GUCY2C-1703 (antibody, human IgG1, V domains shown, full human IgG1/kappa) VH: EVQLVESGGGLVQPGGSLRLSCAASGFTFSSYWMHWVRQAPGKGLEWIGEIKPSNRWNNVHEKFKDRFTISVDKAKNSAYLQMNSLRAEDTAVYYCTRTITTTEGYWFFDVWGQGTLVTVSS VL: DIQLTQSPSSLSASVGDRVTITCRASESVDYYGSSLMQWYQQKPGKAPKLLIYAASKLASGVPSRFSGSGSGTDFTLTISSLQPEDFATYYCQQTRKAYTFGQGTKLEIK | 10.3 nM | 0.00214 s⁻¹ | 210000 M⁻¹ s⁻¹ |  |  |  |  |
| GUCY2C-1696 (antibody, human IgG1, V domains shown, full human IgG1/kappa) VH: EVQLVESGGGLVQPGGSLRLSCAASGFTFSTRWMHWVRQAPGKGLEWIGEIKPSNKLTNVHEKFKDRFTISVDKAKNSAYLQMNSLRAEDTAVYYCARTITTTEGYWFLSDWGQGTLVTVSS VL: DIQLTQSPSSLSASVGDRVTITCRASESVDYYGHSLMQWYQQKPGKAPKLLIYAASKLASGVPSRFSGSGSGTDFTLTISSLQPEDFATYYCQQTRKAYTFGQGTKLEIK | 12.4 nM | 0.00179 s⁻¹ | 144000 M⁻¹ s⁻¹ |  |  |  |  |
| GUCY2C-1706 (antibody, human IgG1, V domains shown, full human IgG1/kappa) VH: EVQLVESGGGLVQPGGSLRLSCAASGFTFSSTWMHWVRQAPGKGLEWIGEIKPSNELTNVHEKFKDRFTISVDKAKNSAYLQMNSLRAEDTAVYYCTRTITTTEGYWFFDVWGQGTLVTVSS VL: DIQLTQSPSSLSASVGDRVTITCRASESVDYYGSSLMQWYQQKPGKAPKLLIYAASKLASGVPSRFSGSGSGTDFTLTISSLQPEDFATYYCQQTRKAYTFGQGTKLEIK | 9.75 nM | 0.00193 s⁻¹ | 198000 M⁻¹ s⁻¹ |  |  |  |  |
| GUCY2C-0078 (bispecific antibody) chain 1: DIVLTQSPASLAVSLGQRATISCRAGESVDNFDISFMNWFQQKPGQPPKLLIYAASNQGSGVPARFSGSGSGTDFSLNIHPMEEDDTAMYFCQQSKEVPYTFGGGTKLEIKGGGSGGGGEVQLVESGGGLVQPGGSLRLSCAASGFTFSDYYMTWVRQAPGKGLEWVAFIRNRARGYTSDHNPSVKGRFTISRDNAKNSLYLQMNSLRAEDTAVYYCARDRPSYYVLDYWGQGTTVTVSSGCPPCPAPEAAGAPSVFLFPPKPKDTLMISRTPEVTCVVVDVSHEDPEVKFNWYVDGVEVHNAKTKPREEQYNSTYRVVSVLTVLHQDWLNGKEYKCKVSNKALPAPIEKTISKAKGQPREPQVCTLPPSREEMTKNQVSLWCLVKGFYPSDIAVEWESNGQPENNYKTTPPVLDSDGSFFLYSKLTVDKSRWQQGNVFSCSVMHEALHNHYTQKSLSLSPG chain 2: DIVMTQSPDSLAVSLGERATINCKSSQSLFNVRSRKNYLAWYQQKPGQPPKLLISWASTRESGVPDRFSGSGSGTDFTLTISSLQAEDVAVYYCKQSYDLFTFGSGTKLEIKGGGSGGGGEVQLQQSGAELARPGASVKLSCKASGYTFTKYWMQWIKQRPGQGLEWIGAIYPGDGFTTYTQKFKGKATLTADKSSNTAYMQLSSLASEDSAVYYCARRNYGRTYGGDYWGQGTSVTVSSGCPPCPAPEAAGAPSVFLFPPKPKDTLMISRTPEVTCVVVDVSHEDPEVKFNWYVDGVEVHNAKTKPREEQYNSTYRVVSVLTVLHQDWLNGKEYKCKVSNKALPAPIEKTISKAKGQPREPQVYTLPPCREEMTKNQVSLSCAVKGFYPSDIAVEWESNGQPENNYKTTPPVLDSDGSFFLVSKLTVDKSRWQQGNVFSCSVMHEALHNHYTQKSLSLSPG |  |  |  | 9.68 nM | 1.45 nM | 23.5 nM | 7.8 nM |
